The values below are quoted from earlier work in patent publication US20140378381A1 (LATITUDE PHARMACEUTICALS, INC., priority 2011, published 2014).

The conditions of series [1]: after injection.

Take glucagon: the “glucagon decomposed into degradation products” value (acidic solution (pH 2-4), 24 hours at 37° C.) is 5-70%. Also, the “aggregation in aqueous solution” value (aqueous solutions of pH 3 or less) was “aggregate to form a gel within an hour”. Besides, the solubility in water entry (physiological pH (pH 4-8)) is given as “insoluble”. Moreover, the onset of action in series [1] was 5 to 20 min.
